16 molecules from patent US20160376333A1 (University of Washington, published 2016) can be followed below.

The chains are these.
T1: human Bcl-B a.a. 11-175 with C-terminal avi-6his tag (human)
T1 construct: also called BCL2L10
T1 chain: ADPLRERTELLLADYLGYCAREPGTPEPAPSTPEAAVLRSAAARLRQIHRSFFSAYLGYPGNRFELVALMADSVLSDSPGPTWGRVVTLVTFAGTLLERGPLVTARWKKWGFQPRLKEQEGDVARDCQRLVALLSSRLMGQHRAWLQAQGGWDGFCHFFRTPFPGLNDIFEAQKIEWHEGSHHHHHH

B1: 10-INDI (designed binder)
chain: ADPKKILDKAKDQVENRVRELKQELERLYKEARKLDLTQEMRRKLHVRYIEAMLKAIAAIMNAIAQAENEADKLKKAGLVNSQQLDELRRRLEELTEEAAQKAHDYGRELQLKLEY
notes: also called αBCLB
B2: 10-ECM01 (designed binder)
chain: ADPKKILDKAKDQVENRVRELKQELERLYKEARKLDLTQEMRRKLHVRYIAAMLKAIAAILNAIAQAENEADKLKKAGLVNSQQLDELRRRLEELTEEAAQKAHDYGREFQLKLEYG
B3: Index 04 (designed binder)
chain: GLLAEEGREQAEERLREARKKAEKAGDKIKDLAKYGQDSDDEKKKFMLKWIAAQLMVIGDMFNHAMEALWELLRRLKNNKISWDAFLKAKEEIEREEKEAARDSREKGREAAKMIDQG
B4: Index 03 (designed binder)
chain: GLDHDKIVDEARKKMEKKIREAKDKAKEFVLKALDNNHDLKQFRELAHKWIALMLMAIGDAFNIMMEAKRKAEWLREQGQQDEDKAEEAKEKLDKAFKEAAERFEEIAKIYGKQAKNG
B5: 2-CDP02 (designed binder)
chain: ADPKKVLDKAKDRAENAVRELKQKLEELYKEARKLDLTQDMRNKLIMKAIAAELRAIGDIFQAILEAKAEAKKLLDAGLVNSQQFDELKRRLEELEEEAAERARKLGDEFRQKLEYG
B6: 2-CDP07 (designed binder)
chain: ADPKKVLDKAKDDAENRVRELKQKLEELYKEARKLDLTQEERDELKLKAIAASLQASGDIYNAILRALEEARKLKKAGLVNSQQLDELKRRLEELAEEAQRKANKLGDEFRLKLEY
B7: BbpD04 (designed binder)
chain: ADWKKVLDKAKDIAENRVREIKQKLEEFYKKAMKLDLTQEMRRKLMLEWIAAMLMAIGDIFNAIEQAKQEADKLKKAGQVNSQLLDELKRRLEELKEEASRKCHDYGREFQLKLEY
B8: Epstein-Barr virus BHRF1 a.a. 1-161 with C-terminal avi-6his tag (other)
chain: AYSTREILLALCIRDSRVHGNGTLHPVLELAARETPLRLSPEDTVVLRYHVLLEEIIERNSETFTETWNRFITHTEHVDLDFNSVFLEIFHRGDPSLGRALAWMAWCMHACRTLCCNQSTPYYVVDLSVRGMLEASEGLDGWIHQQGGWSTLIEDNIPGSGLNDIFEAQKIEWHEGSHHHHHH
notes: also called EBV BHRF1; BHRF1-biotin
B9: human Mcl-1 a.a. 172-327 with C-terminal avi-6his tag (other)
chain: GSDELYRQSLEIISRYLREQATGAKDTKPMGRSGATSRKALETLRRVGDGVQRNHETAFQGMLRKLDIKNEDDVKSLSRVMIHVFSDGVTNWGRIVTLISFGAFVAKHLKTINQESCIEPLAESITDVLVRTKRDWLVKQRGWDGFVEFFHVEDLEGGGLNDIFEAQKIEWHEGSHHHHHH
B10: human Bfl-1 a.a. 1-153 (C4S) with C-terminal avi-6his tag (other)
chain: TDSEFGYIYRLAQDYLQCVLQIPQPGSGPSKTSRVLQNVAFSVQKEVEKNLKSCLDNVNVVSVDTARTLFNQVMEKEFEDGIINWGRIVTIFAFEGILIKKLLRQQIAPDVDTYKEISYFVAEFIMNNTGEWIRQNGGWENGFVKKFEPKSGGLNDIFEAQKIEWHEGSHHHHHH
notes: also called A1/Bfl-1
B11: human Bcl-w a.a. 1-182 with C-terminal avi-6his tag (other)
chain: MATPASAPDTRALVADFVGYKLRQKGYVCGAGPGEGPAADPLHQAMRAAGDEFETRFRRTFSDLAAQLHVTPGSAQQRFTQVSDELFQGGPNWGRLVAFFVFGAALCAESVNKEMEPLVGQVQEWMVAYLETQLADWIHSSGGWAEFTALYGDGALEEARRLREGNWASVRTVLTGAVALGAGLNDIFEAQKIEWHEGSHHHHHH
notes: range 1-182; also called BCL2L2
B12: M-CDP05 (designed binder)
chain: ADPKKVLDKAKDQAENRVRELKQKLEELYKEARKLDLTQEERHRLETKALSALLAAIGDILDAIMQALQEAAKLKKAGLVNSQQLDELKRRLEELRKEASRKARDYGREFWLKLDY
B13: 2-CDP01 (designed binder)
chain: ADPKKVLDKAKDQAENVVRKLKQELEELYKEARKLDLTQDMREKIKLRAEAAELQAIGDIFQAILQAKMEAKKLYDAGLVNSQQLDELKRRLEELAKEAEDRAAKLGKEFLQKLEYG
B14: 10-CDP01 (designed binder)
chain: ADPKKVLDKAKDQAENRVRELKQELERLYKEARKLDLTQEMRRKLEWRYIAAMLKAIGDILNAIAQAENEADKLKKAGLVNSQQLDELRRRLEELAKEAARKAHDYGREFQLKLEY
notes: also called B-CDP01
B15: M-CDP01 (designed binder)
chain: ADPKKVLDKAKDQAENRVRELKQELEELYKKARKLDLTQEERRKLEEEAIAALLRAIGDIYNAIQQALNEADKLKKAGLVNSQQLDELKRRLEELKKEASKKARDYGLEFFEKLDY
B16: 2-CDP03 (designed binder)
chain: ADPKKVLDKAKDQAENRVRELKQKLEELYKEARKLDLTQEMRRELKERALAARLQAVGDIFYAILQAKSEADKLKKAGLVNSQQLDELKRRLEELAEEAQRKARDYGIEFALKLEY

In experiment [1] the target is T1, human Bcl-B a.a. 11-175 with C-terminal …. In words: ratio of the KD of the next tightest BCL2 protein to the KD of the target, BLI.
For experiment [2], the target named is B11. Kind of experiment: BLI, biotinylated target on streptavidin sensor, range of analyte concentrations.
Experiment [3] addresses B10. The description is as above.
Experiment [4] has as its target T2, human Bcl-2 a.a. 1-207 with C-terminal avi-6his tag (human, UniProt P10415 2-207). Described as above.
Target sequence in this assay (P10415 other isoform, or with tags, fused parts or gaps limits assumed): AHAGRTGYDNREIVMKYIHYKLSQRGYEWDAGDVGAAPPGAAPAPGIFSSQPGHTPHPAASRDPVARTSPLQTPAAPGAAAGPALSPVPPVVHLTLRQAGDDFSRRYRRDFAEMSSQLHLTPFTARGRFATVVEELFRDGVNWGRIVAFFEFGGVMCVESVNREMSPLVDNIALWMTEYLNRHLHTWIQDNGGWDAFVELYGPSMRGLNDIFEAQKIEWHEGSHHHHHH
Experiment [5] has as its target T1, human Bcl-B a.a. 11-175 with C-terminal …. The description is as above.
The target of experiment [6] is T3, human Bcl-XL a.a. 1-205 with C-terminal avi-6his tag (human, UniProt Q07817 2-206).
T3 construct: also called BCL2L1
The description is as above.

The target in experiment [7] is B9. The experiment is described as above.
Experiment [8] addresses B8. In words: yeast surface display; BHRF1 titrated on clonal yeast showing the design, fluorescence by flow cytometry (apparent KD).
In experiment [9] the target is B8. Kind of experiment: yeast display library, FACS sort at 400 nM BHRF1, deep sequencing.
Experiment [10] has as its target B8. Kind of experiment: yeast display library, FACS sort at 100 nM BHRF1, deep sequencing.
Experiment [11] deals with T2, human Bcl-2 a.a. 1-207 with C-terminal …. Kind of experiment: initial BLI screening (column 'Binds target?').
Experiment [12] has as its target B9. In words: yeast surface display titration (apparent KD).
In experiment [13] the target is human Bim-BH3 (a.a. 141-166) displayed on yeast (human, UniProt O43521 141-166). In words: yeast surface display titration (apparent KD).
Experiment [14] has as its target T4, Bim-BH3 motif fused to the C-terminus of maltose-binding protein (MBP) (human, UniProt O43521 141-166).
T4 construct: domain: Bim-BH3 motif; also called MBP-Bim-BH3
In words: BLI, biotinylated target on streptavidin sensor, MBP-Bim-BH3 in solution.

Experiment [15] has as its target B9. In words: BLI at a single analyte concentration (50 nM, 600 s association, then buffer); biotinylated BCL2 protein on a streptavidin sensor.

T4 sequence (O43521 141-166 limits assumed): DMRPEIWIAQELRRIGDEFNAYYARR
T3 sequence (Q07817 other isoform, or with tags, fused parts or gaps limits assumed): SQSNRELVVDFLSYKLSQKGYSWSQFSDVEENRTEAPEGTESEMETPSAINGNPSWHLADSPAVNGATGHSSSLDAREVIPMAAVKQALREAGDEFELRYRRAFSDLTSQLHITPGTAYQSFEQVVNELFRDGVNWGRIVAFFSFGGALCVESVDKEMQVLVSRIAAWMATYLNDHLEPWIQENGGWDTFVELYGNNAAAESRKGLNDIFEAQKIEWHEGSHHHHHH

Regarding B1, the Specificity in experiment [1] amounted to 1010 fold.
Turning to B2, in experiment [1], the Specificity was determined as 31 fold. The Kd in experiment [2] came to 19000 nM; in experiment [3], 2380 nM; in [4], 12500 nM; in experiment [5], 77 nM; in experiment [6], 7800 nM; in experiment [7], 3650 nM.
In the case of B3, in [8], the Kd was 44 nM. For the same molecule, the Log2 enrichment ratio in experiment [9] was 1.96 log2; in [10], 2.11 log2.
For B4 the same measures were 160 nM, 3.17 log2 and 2.52 log2.
For the molecule B5, the binding result in [11] was “binds”.
Turning to B6, the binding result in experiment [11] is given as “binds”.
With B7, in experiment [12], the Kd is 17 nM.
For B8, the Kd in [13] was determined as 12 nM; in [14], 7 nM.
The corresponding values for B9 are 0.6 nM and 0.17 nM.
For B10 the same measures were 2.1 nM and 0.61 nM.
With B11, the Kd was found to be 2.1 nM in experiment [13] and 20 nM in experiment [14].
With B12, in [15], the binding result was “binds”.
Consider B13, for which the binding result in experiment [11] is given as “binds”.
Turning to B14, the Specificity in [1] stood at 0.05 fold. For the same molecule, the Kd in [2] amounted to 900 nM; in experiment [3], 250 nM; in experiment [4] it was 14 nM; in experiment [6] it was 16 nM; in experiment [7], 0.47 nM. In addition, in experiment [5], the “apparent Kd (pooled screen)” value stood at 9 nM.
B15: the binding result in experiment [15] is “binds”.
B16: the binding result in experiment [11] is recorded as “binds”.
